Test results published in patent US20260242735A1 (UNIVERSIT T BASEL, published 2026).

Experiments:
Assay in all cases: alanine scan, flow cytometry, HEK293-T;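 note: antibody binding to each alanine-substituted CD33 mutant expressed transiently in HEK293-T, read as fluorescence minus background, mean of duplicates, relative to wild-type CD33 set as 100%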
human CD33 S178A = human CD33 S178A (human, UniProt P20138 18-364)
human CD33 R190A = human CD33 R190A (human, UniProt P20138 18-364)
human CD33 H193A = human CD33 H193A (human, UniProt P20138 18-364)
Sequence of human CD33 H193A (P20138 18-364 H193A limits assumed): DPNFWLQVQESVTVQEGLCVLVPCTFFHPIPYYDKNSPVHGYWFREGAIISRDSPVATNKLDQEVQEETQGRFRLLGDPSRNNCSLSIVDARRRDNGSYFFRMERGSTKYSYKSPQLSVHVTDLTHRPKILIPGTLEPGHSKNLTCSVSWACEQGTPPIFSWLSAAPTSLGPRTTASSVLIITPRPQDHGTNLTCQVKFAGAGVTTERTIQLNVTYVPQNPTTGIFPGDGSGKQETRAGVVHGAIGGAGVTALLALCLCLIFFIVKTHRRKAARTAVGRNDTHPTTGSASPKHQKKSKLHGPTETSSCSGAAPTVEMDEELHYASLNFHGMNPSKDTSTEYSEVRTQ

human CD33 I198A = molecular target: T1, human CD33 I198A (human, UniProt P20138 18-364)
T1 construct: the '-,' is not explained
T1 sequence (P20138 18-364 I198A limits assumed): as the sequence (P20138 18-364 H193A limits assumed) above, with A176H, I181A counted along it

human CD33 T208A = human CD33 T208A (human, UniProt P20138 18-364)
Sequence of human CD33 T208A (P20138 18-364 T208A limits assumed): as the sequence (P20138 18-364 H193A limits assumed) above, with A176H, T191A counted along it

human CD33 Q213A = human CD33 Q213A (human, UniProt P20138 18-364)
Sequence of human CD33 Q213A (P20138 18-364 Q213A limits assumed): as the sequence (P20138 18-364 H193A limits assumed) above, with A176H, Q196A counted along it

human CD33 A217S = human CD33 A217S (human, UniProt P20138 18-364)
Sequence of human CD33 A217S (P20138 18-364 A217S limits assumed): as the sequence (P20138 18-364 H193A limits assumed) above, with A176H, A200S counted along it

human CD33 R225A = human CD33 R225A (human, UniProt P20138 18-364)
Sequence of human CD33 R225A (P20138 18-364 R225A limits assumed): as the sequence (P20138 18-364 H193A limits assumed) above, with A176H, R208A counted along it

human CD33 I242A = human CD33 I242A (human, UniProt P20138 18-364)
Sequence of human CD33 I242A (P20138 18-364 I242A limits assumed): as the sequence (P20138 18-364 H193A limits assumed) above, with A176H, I225A counted along it

human CD33 T253A = human CD33 T253A (human, UniProt P20138 18-364)
Sequence of human CD33 T253A (P20138 18-364 T253A limits assumed): as the sequence (P20138 18-364 H193A limits assumed) above, with A176H, T236A counted along it

human CD33 A269S = human CD33 A269S (human, UniProt P20138 18-364)
Sequence of human CD33 A269S (P20138 18-364 A269S limits assumed): as the sequence (P20138 18-364 H193A limits assumed) above, with A176H, A252S counted along it

human CD33 V282A = human CD33 V282A (human, UniProt P20138 18-364)
Sequence of human CD33 V282A (P20138 18-364 V282A limits assumed): as the sequence (P20138 18-364 H193A limits assumed) above, with A176H, V265A counted along it

human CD33 R287A = human CD33 R287A (human, UniProt P20138 18-364)
Sequence of human CD33 R287A (P20138 18-364 R287A limits assumed): as the sequence (P20138 18-364 H193A limits assumed) above, with A176H, R270A counted along it

human CD33 P244A = human CD33 P244A (human, UniProt P20138 18-364)
Sequence of human CD33 P244A (P20138 18-364 P244A limits assumed): as the sequence (P20138 18-364 H193A limits assumed) above, with A176H, P227A counted along it

human CD33 G304A = human CD33 G304A (human, UniProt P20138 18-364)
Sequence of human CD33 G304A (P20138 18-364 G304A limits assumed): as the sequence (P20138 18-364 H193A limits assumed) above, with A176H, G287A counted along it

human CD33 P308A = human CD33 P308A (human, UniProt P20138 18-364)
Sequence of human CD33 P308A (P20138 18-364 P308A limits assumed): as the sequence (P20138 18-364 H193A limits assumed) above, with A176H, P291A counted along it

human CD33 K309A = human CD33 K309A (human, UniProt P20138 18-364)
Sequence of human CD33 K309A (P20138 18-364 K309A limits assumed): as the sequence (P20138 18-364 H193A limits assumed) above, with A176H, K292A counted along it

human CD33 K312A = human CD33 K312A (human, UniProt P20138 18-364)
Sequence of human CD33 K312A (P20138 18-364 K312A limits assumed): as the sequence (P20138 18-364 H193A limits assumed) above, with A176H, K295A counted along it

Sequence of human CD33 R190A (P20138 18-364 R190A limits assumed): as the sequence (P20138 18-364 H193A limits assumed) above, with R173A, A176H counted along it
Sequence of human CD33 S178A (P20138 18-364 S178A limits assumed): as the sequence (P20138 18-364 H193A limits assumed) above, with S161A, A176H counted along it

Binder	Mean % WT Binding (human CD33 S178A)	Mean % WT Binding (human CD33 R190A)	Mean % WT Binding (human CD33 H193A)	Mean % WT Binding (human CD33 I198A)	Mean % WT Binding (human CD33 T208A)	Mean % WT Binding (human CD33 Q213A)	Mean % WT Binding (human CD33 A217S)	Mean % WT Binding (human CD33 R225A)	Mean % WT Binding (human CD33 I242A)	Mean % WT Binding (human CD33 T253A)	Mean % WT Binding (human CD33 A269S)	Mean % WT Binding (human CD33 V282A)	Mean % WT Binding (human CD33 R287A)	Mean % WT Binding (human CD33 P244A)	Mean % WT Binding (human CD33 G304A)	Mean % WT Binding (human CD33 P308A)	Mean % WT Binding (human CD33 K309A)	Mean % WT Binding (human CD33 K312A)
Refmab #1 (antibody, V domains shown, In the alanine scan antibodies were used as IgG or Fab; also called hP67.6) VH: EVQLVQSGAEVKKPGSSVKVSCKASGYTITDSNIHWVRQAPGQSLEWIGYIYPYNGGTDYNQKFKNRATLTVDNPTNTAYMELSSLRSEDTAFYYCVNGNPWLAYWGQGTLVTVSS VL: DIQLTQSPSTLSASVGDRVTITCRASESLDNYGIRFLTWFQQKPGKAPKLLMYAASNQGSGVPSRFSGSGSGTEFTLTISSLQPDDFATYYCQQTKEVPWSFGQGTKVEVK	94%	96.6%	99.9%	86.7%	101%	95.3%	80.2%	97.8%	77.9%	–	–	–	–	–	–	–	–	–
Refmab #1 (antibody, V domains shown, The alanine scan used IgG or Fab; also called hP67.6) VH: EVQLVQSGAEVKKPGSSVKVSCKASGYTITDSNIHWVRQAPGQSLEWIGYIYPYNGGTDYNQKFKNRATLTVDNPTNTAYMELSSLRSEDTAFYYCVNGNPWLAYWGQGTLVTVSS VL: DIQLTQSPSTLSASVGDRVTITCRASESLDNYGIRFLTWFQQKPGKAPKLLMYAASNQGSGVPSRFSGSGSGTEFTLTISSLQPDDFATYYCQQTKEVPWSFGQGTKVEVK	–	–	–	–	–	–	–	–	–	94.5 % WT binding	107 % WT binding	109 % WT binding	94.7 % WT binding	84.3 % WT binding	104 % WT binding	94.3 % WT binding	92.7 % WT binding	83.8 % WT binding
Refmab #4 (antibody, V domains shown, In the alanine scan antibodies were used as IgG or Fab) VH: QVQLVQSGAEVKKPGESVKVSCKASGYTFTNYGMNWVKQAPGQGLEWMGWINTYTGEPTYADKFQGRVTMTTDTSTSTAYMEIRNLGGDDTAVYYCARWSWSDGYYVYFDYWGQGTSVTVSS VL: DIVMTQSPDSLTVSLGERTTINCKSSQSVLDSSTNKNSLAWYQQKPGQPPKLLLSWASTRESGIPDRFSGSGSGTDFTLTIDSPQPEDSATYYCQQSAHFPITFGQGTRLEIK	101%	109%	103%	94.4%	108%	103%	61.1%	108%	104%	–	–	–	–	–	–	–	–	–
Refmab #4 (antibody, V domains shown, The alanine scan used IgG or Fab) VH: QVQLVQSGAEVKKPGESVKVSCKASGYTFTNYGMNWVKQAPGQGLEWMGWINTYTGEPTYADKFQGRVTMTTDTSTSTAYMEIRNLGGDDTAVYYCARWSWSDGYYVYFDYWGQGTSVTVSS VL: DIVMTQSPDSLTVSLGERTTINCKSSQSVLDSSTNKNSLAWYQQKPGQPPKLLLSWASTRESGIPDRFSGSGSGTDFTLTIDSPQPEDSATYYCQQSAHFPITFGQGTRLEIK	–	–	–	–	–	–	–	–	–	108 % WT binding	83.6 % WT binding	111 % WT binding	65.3 % WT binding	100 % WT binding	95 % WT binding	99.8 % WT binding	99.9 % WT binding	98.9 % WT binding
Refmab #3 (antibody, V domains shown, In the alanine scan antibodies were used as IgG or Fab) VH: QVQLVQSGAEVKKPGSSVKVSCKASGYTFTDYNMHWVRQAPGQGLEWIGYIYPYNGGTGYNQKFKSKATITADESTNTAYMELSSLRSEDTAVYYCARGRPAMDYWGQGTLVTVSS VL: DIQMTQSPSSLSASVGDRVTITCRASESVDNYGISFMNWFQQKPGKAPKLLIYAASNQGSGVPSRFSGSGSGTDFTLTISSLQPDDFATYYCQQSKEVPWTFGQGTKVEIK	112%	124%	92%	91.2%	83.6%	135%	148%	98.9%	128%	–	–	–	–	–	–	–	–	–
Refmab #3 (antibody, V domains shown, The alanine scan used IgG or Fab) VH: QVQLVQSGAEVKKPGSSVKVSCKASGYTFTDYNMHWVRQAPGQGLEWIGYIYPYNGGTGYNQKFKSKATITADESTNTAYMELSSLRSEDTAVYYCARGRPAMDYWGQGTLVTVSS VL: DIQMTQSPSSLSASVGDRVTITCRASESVDNYGISFMNWFQQKPGKAPKLLIYAASNQGSGVPSRFSGSGSGTDFTLTISSLQPDDFATYYCQQSKEVPWTFGQGTKVEIK	–	–	–	–	–	–	–	–	–	98.1 % WT binding	97.4 % WT binding	73.2 % WT binding	112 % WT binding	138 % WT binding	121 % WT binding	82.8 % WT binding	92 % WT binding	99.6 % WT binding
Refmab #2 (antibody, V domains shown, In the alanine scan antibodies were used as IgG or Fab) VH: QVQLVQSGAEVKKPGSSVKVSCKASGGTFSDYAISWVRQAPGQGLEWMGRIIPILGVADYAQKFQGRVTITADKSTRTAYMELSSLRSEDTAVYYCARNWADAFDIWGQGTMVTVSS VL: DIQLTQSPSSLSASVGDRVTITCRASQGISSVLAWYQQKPGKAPKLLIYDASSLESGVPSRFSGSGSGTDFTLTISSLQPEDFATYYCQQFDSSITFGQGTKLEIK	113%	114%	122%	114%	117%	115%	109%	123%	98.6%	–	–	–	–	–	–	–	–	–
Refmab #2 (antibody, V domains shown, The alanine scan used IgG or Fab) VH: QVQLVQSGAEVKKPGSSVKVSCKASGGTFSDYAISWVRQAPGQGLEWMGRIIPILGVADYAQKFQGRVTITADKSTRTAYMELSSLRSEDTAVYYCARNWADAFDIWGQGTMVTVSS VL: DIQLTQSPSSLSASVGDRVTITCRASQGISSVLAWYQQKPGKAPKLLIYDASSLESGVPSRFSGSGSGTDFTLTISSLQPEDFATYYCQQFDSSITFGQGTKLEIK	–	–	–	–	–	–	–	–	–	104 % WT binding	111 % WT binding	112 % WT binding	110 % WT binding	112 % WT binding	111 % WT binding	89.7 % WT binding	111 % WT binding	110 % WT binding
